Residue numbers refer to the chain shown, from its start.
T1: rat PAI-1 (rat, UniProt P20961 24-402)
T1 sequence: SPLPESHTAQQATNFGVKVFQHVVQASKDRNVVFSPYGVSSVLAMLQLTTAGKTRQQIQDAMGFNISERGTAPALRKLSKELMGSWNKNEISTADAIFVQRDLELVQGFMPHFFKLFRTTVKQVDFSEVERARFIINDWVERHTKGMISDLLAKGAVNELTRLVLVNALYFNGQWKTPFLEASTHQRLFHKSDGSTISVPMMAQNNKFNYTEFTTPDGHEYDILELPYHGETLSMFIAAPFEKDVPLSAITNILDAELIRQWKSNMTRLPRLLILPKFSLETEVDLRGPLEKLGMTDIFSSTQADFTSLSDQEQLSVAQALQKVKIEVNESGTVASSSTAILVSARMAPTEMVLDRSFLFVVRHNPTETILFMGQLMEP

T2: mouse PAI-1 (mouse, UniProt P22777 24-401)
T2 sequence: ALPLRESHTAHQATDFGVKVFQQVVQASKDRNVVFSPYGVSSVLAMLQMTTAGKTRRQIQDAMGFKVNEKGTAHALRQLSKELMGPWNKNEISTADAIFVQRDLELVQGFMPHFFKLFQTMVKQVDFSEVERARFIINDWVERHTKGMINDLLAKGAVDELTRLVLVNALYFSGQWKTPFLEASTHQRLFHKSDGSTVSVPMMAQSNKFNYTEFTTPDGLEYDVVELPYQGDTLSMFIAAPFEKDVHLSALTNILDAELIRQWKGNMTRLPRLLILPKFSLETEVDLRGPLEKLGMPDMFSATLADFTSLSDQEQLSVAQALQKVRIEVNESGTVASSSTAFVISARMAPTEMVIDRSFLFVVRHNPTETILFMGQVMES

B1: rabbit PAI-1 (other)
chain: SYPHQPQLTTAGETQQQIQAAMRFKIDEQSTAPALRHLHKELMGPWNKDEISTTDAIFVQRDLKLVQGFMPHFFRLFRTTVKQVDFSDVQRARFIINDWVERHTKGMISDLLGEGAMDQLTRLLLVNALYFNGQWKTPFSKSGTHHRLFHKSDGSTISVPMMAQTNKFNYTEFLTPDGHYYDILELPYHGETLSMFIAAPYEKQVPLSALTNILSAQLISQWKGNMTRVTRLLVLPKFSLESEVDLRAPLENLGMTDMFRPGQADFSNLSDQELLHVSRALQKVKIEVNESGTMASSSTVILVSARMAPEEIIMDRPFLFVVRHNPTGTILFLGQVMEL
B2: Antibody 16 scFv (scFv)
chain: QVQLVQSGAEVKKPGSSVKVSCKASGGTFSSYAISWVRQAPGQGLEWMGGIIPTFGTANYAQKFQGRVTITADESTSTAYMELSSLRSEDTAVYYCAREKRQWLEGHFDYWGRGTLVTVSSDIQMTQSPSTLSASVGDRVTITCRASESIYHSLAWYQQKPGKAPKLLIYKASSLASGVPSRFSGSRSGTEFTLTISSLQPDDFATYYCQQYSNYPLTFGGGTKVEIK
B3: Antibody 08 scFv (scFv)
chain: B2 chain with K100R, S149G, S153N
B4: Antibody 20 IgG1, not germlined (antibody, V domains shown)
VH: QVQLQQSGAEVKKPGSSVKVSCKASGGTFSSYAISWVRQAPGQGLEWMGGIIPTFGTANYAQKFQGRVTITADESTSTAYMELSSLRSEDTAVYYCAREKRQWLEGHFDYWGRGTLVTVSS
VL: DIQMTQSPSTLSASVGDRVTITCRASEGIYHELAWYQQKPGKAPKLLIYRASSLASGVPSRFSGSRSGTEFTLTISSLQPDDFATYYCQQYSDYPLTFGGGTKVEIK
notes: IgG1; also called Ab 20
B5: Antibody 01 IgG4, not germlined (antibody, V domains shown)
VH: B4 VH with Q5V, T54I
VL: B4 VL with H31R, E32S, R50K, R66G, D93N
notes: IgG4; also called Ab 01
B6: Antibody 16 IgG1, not germlined (antibody, V domains shown)
VH: B4 VH with Q5V
VL: B4 VL with G28S, E32S, R50K, D93N
notes: IgG1; also called Ab 16
B7: Antibody 02 IgG4, not germlined (antibody, V domains shown)
VH: B4 VH with Q5V
VL: B4 VL with E32S, R50K, R66G
notes: IgG4; also called Ab 02
B8: Antibody 27 IgG1, not germlined (antibody, V domains shown)
VH: B4 VH with T28A, S85G, L116P
VL: B4 VL with T10F, V15I, E32N, V58A, R66G, E70D, D93N, V104L
notes: IgG1; also called Ab 27
B9: PICK167_A01-fgl IgG1 (antibody, V domains shown)
VH: B4 VH with Q5V, K100R
VL: DIQMTQSPSTLSASVGDRVTITCRASEGIYHNLAWYQQKPGKAPKLLIYKASSLASGVPSRFSGSRSGTEFTLTISSLQPDDFATYYCQQYSNYPLTFGGGTKVEIKR

Key:
[1] = molecular target: B6; test: competition binding assay: Antibody 16 IgG adsorbed to the plate, biotinylated active human PAI-1 plus a titration of the unlabelled competitor, streptavidin-Europium detection
cynomolgus PAI-1 [2] = molecular target: T3, cynomolgus PAI-1 (cynomolgus, UniProt P05121 24-402 (human entry), limits assumed); test: cell-based or functional assay
[3] = molecular target: T4, active human PAI-1, recombinant, wild-type, non-glycosylated (E. coli) (human, UniProt P05121 24-402); test: cell-based or functional assay
rat PAI-1 [4] = molecular target: T1, rat PAI-1; test: cell-based or functional assay
mouse PAI-1 [5] = molecular target: T2, mouse PAI-1; test: cell-based or functional assay
[6] = molecular target: T4, active human PAI-1, recombinant, …; test: cell-based or functional assay; remark: listed apart in the source
rat PAI-1 [7] = molecular target: T1, rat PAI-1; test: cell-based or functional assay; remark: listed apart in the source
mouse PAI-1 [8] = molecular target: T2, mouse PAI-1; test: cell-based or functional assay; remark: listed apart in the source
mouse PAI-1 [9] = molecular target: T2, mouse PAI-1; test: cell-based or functional assay; remark: listed apart in the source
cynomolgus PAI-1 [10] = molecular target: T3, cynomolgus PAI-1; test: cell-based or functional assay; remark: listed apart in the source
rat PAI-1 [11] = molecular target: T1, rat PAI-1; test: competition ELISA, IgG on plate, biotinylated active human PAI-1 against titrated unlabelled competitor
mouse PAI-1 [12] = molecular target: T2, mouse PAI-1; test: as above
latent human PAI-1 = molecular target: T5, latent human PAI-1 (human, UniProt P05121 24-402); test: as above
T5 construct: also called latent PAI-1

rabbit PAI-1 = molecular target: B1; test: as above
rat PAI-1 [13] = molecular target: T1, rat PAI-1; test: cell-based or functional assay; remark: listed apart in the source

Binder: B1
- IC50 (read off the curve) [1]: ~3 nM

Binder: B2
- IC50, cyno chromogenic assay (FIG. 2b) (cynomolgus PAI-1 [2]): 0.8 nM
- IC50, human chromogenic assay (FIG. 2a) [3]: 3.6 nM
- HT-1080 Exo PAI-1 (IC50 in nM) rat (rat PAI-1 [4]): 52.6 nM
- HT-1080 Exo PAI-1 (IC50 in nM) mouse (mouse PAI-1 [5]): 17.6 nM
- HT-1080 Exo PAI-1 (IC50 in nM) human [6]: 16.9 nM
- Chromogenic (IC50 in nM) rat (rat PAI-1 [7]): 5.6 nM
- Chromogenic (IC50 in nM) mouse (mouse PAI-1 [8]): 4.3 nM

Binder: B3
- IC50, mouse chromogenic assay (FIG. 2d) (mouse PAI-1 [9]): 2.6 nM
- IC50, cyno chromogenic assay (FIG. 2b) (cynomolgus PAI-1 [2]): 0.8 nM
- HT-1080 Exo PAI-1 (IC50 in nM) mouse (mouse PAI-1 [5]): 26.2 nM
- Chromogenic (IC50 in nM) cyno (cynomolgus PAI-1 [10]): 1 nM
- Chromogenic IC50 ratio cyno/human (cynomolgus PAI-1 [10]): 0.3 fold

Binder: B4
- IC50 ratio rat/wt (rat PAI-1 [11]): 2.3 fold
- IC50 ratio mouse/wt (mouse PAI-1 [12]): 7.6 fold
- IC50 ratio latent/wt (latent human PAI-1): 7.5 fold
- IC50 ratio rabbit/wt (rabbit PAI-1): 9.1 fold
- Chromogenic IC50 ratio rat/human (rat PAI-1 [7]): 1.8 fold
- Chromogenic IC50 ratio mouse/human (mouse PAI-1 [8]): 0.9 fold
- Chromogenic IC50 ratio cyno/human (cynomolgus PAI-1 [10]): 0.5 fold

Binder: B5
- IC50 ratio rabbit/wt (rabbit PAI-1): 9 fold

Binder: B6
- IC50 ratio rabbit/wt (rabbit PAI-1): 7.9 fold

Binder: B7
- IC50 ratio rabbit/wt (rabbit PAI-1): 4.8 fold

Binder: B8
- IC50 ratio rat/wt (rat PAI-1 [11]): 1.2 fold
- IC50 ratio mouse/wt (mouse PAI-1 [12]): 6.1 fold
- IC50 ratio latent/wt (latent human PAI-1): 6.8 fold
- IC50 ratio rabbit/wt (rabbit PAI-1): 85 fold
- Chromogenic IC50 ratio rat/human (rat PAI-1 [7]): 5.4 fold
- Chromogenic IC50 ratio mouse/human (mouse PAI-1 [8]): 3.3 fold

Binder: B9
- pIC50, HT1080 plasminogen activation assay (rat PAI-1 [13]): 7.64 pIC50
- pIC50, HT1080 plasminogen activation assay [3]: 7.87 pIC50

Reference: US20130266566A1 (AbbVie / Abbott, published 2013)
